{"source": "patent US20250340643A1", "key": {"[1]": {"molecular_target": "CTLA4 on the cells of the reporter gene bioassay (human) (UniProt P16410)", "sequence (P16410 36-223)": "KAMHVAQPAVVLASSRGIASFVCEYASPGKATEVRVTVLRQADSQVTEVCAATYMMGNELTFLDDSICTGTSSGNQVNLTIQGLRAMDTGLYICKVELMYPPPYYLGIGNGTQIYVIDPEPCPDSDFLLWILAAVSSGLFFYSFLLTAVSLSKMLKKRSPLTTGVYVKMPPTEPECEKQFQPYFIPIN", "assay": "cell-based or functional assay"}, "[2]": {"molecular_target": "recombinant FcRn (UniProt P55899)", "sequence (P55899 24-297 limits assumed, form in doubt, chain 1 of 2)": "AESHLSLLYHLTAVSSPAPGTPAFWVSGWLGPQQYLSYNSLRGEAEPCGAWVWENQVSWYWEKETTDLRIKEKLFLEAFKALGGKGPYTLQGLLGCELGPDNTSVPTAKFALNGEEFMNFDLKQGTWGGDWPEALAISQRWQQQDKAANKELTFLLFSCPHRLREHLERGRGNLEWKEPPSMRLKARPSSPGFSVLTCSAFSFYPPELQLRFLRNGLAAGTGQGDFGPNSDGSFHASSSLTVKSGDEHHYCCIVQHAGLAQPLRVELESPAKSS", "sequence (chain, as listed by the source limits assumed, form in doubt, chain 2 of 2)": "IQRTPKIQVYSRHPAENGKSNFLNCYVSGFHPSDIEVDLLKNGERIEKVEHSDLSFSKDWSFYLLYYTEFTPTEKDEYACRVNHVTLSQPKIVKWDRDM", "assay": "SPR, recombinant FcRn immobilized on the sensor; relative to Reference Standard"}, "[3]": {"molecular_target": "CTLA-4 (as used in the CTLA-4 binding assay) (human) (UniProt P16410)", "sequence (P16410 36-161 limits assumed)": "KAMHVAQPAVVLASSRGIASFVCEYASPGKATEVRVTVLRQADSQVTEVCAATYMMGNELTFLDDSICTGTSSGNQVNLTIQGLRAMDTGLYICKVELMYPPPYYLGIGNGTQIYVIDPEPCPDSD", "assay": "CTLA-4 binding relative to tremelimumab Reference Standard; method not named for this table (competitive ELISA or SPR per the methods)"}}}
{"substance": "Tremelimumab IEC Fraction D (acidic peak 1), after pH 9 for 7 days (antibody)", "values": [{"measurement": "Rel. Potency (%) (reporter gene bioassay)", "setting": "[1]", "value": 78, "unit": "%"}, {"measurement": "Rel. FcRn Binding (%)", "setting": "[2]", "value": 95, "unit": "%"}, {"measurement": "Rel. CTLA-4 Binding (%)", "setting": "[3]", "value": 62, "unit": "%"}]}
